Results published in IntAct's records for PubMed 28514442.

B1: WASH complex subunit 5 (Homo sapiens), Q12768 (parent)
chain: MLDFLAENNLCGQAILRIVSCGNAIIAELLRLSEFIPAVFRLKDRADQQKYGDIIFDFSYFKGPELWESKLDAKPELQDLDEEFRENNIEIVTRFYLAFQSVHKYIVDLNRYLDDLNEGVYIQQTLETVLLNEDGKQLLCEALYLYGVMLLVIDQKIEGEVRERMLVSYYRYSAARSSADSNMDDICKLLRSTGYSSQPGAKRPSNYPESYFQRVPINESFISMVIGRLRSDDIYNQVSAYPLPEHRSTALANQAAMLYVILYFEPSILHTHQAKMREIVDKYFPDNWVISIYMGITVNLVDAWEPYKAAKTALNNTLDLSNVREQASRYATVSERVHAQVQQFLKEGYLREEMVLDNIPKLLNCLRDCNVAIRWLMLHTADSACDPNNKRLRQIKDQILTDSRYNPRILFQLLLDTAQFEFILKEMFKQMLSEKQTKWEHYKKEGSERMTELADVFSGVKPLTRVEKNENLQAWFREISKQILSLNYDDSTAAGRKTVQLIQALEEVQEFHQLESNLQVCQFLADTRKFLHQMIRTINIKEEVLITMQIVGDLSFAWQLIDSFTSIMQESIRVNPSMVTKLRATFLKLASALDLPLLRINQANSPDLLSVSQYYSGELVSYVRKVLQIIPESMFTSLLKIIKLQTHDIIEVPTRLDKDKLRDYAQLGPRYEVAKLTHAISIFTEGILMMKTTLVGIIKVDPKQLLEDGIRKELVKRVAFALHRGLIFNPRAKPSELMPKLKELGATMDGFHRSFEYIQDYVNIYGLKIWQEEVSRIINYNVEQECNNFLRTKIQDWQSMYQSTHIPIPKFTPVDESVTFIGRLCREILRITDPKMTCHIDQLNTWYDMKTHQEVTSSRLFSEIQTTLGTFGLNGLDRLLCFMIVKELQNFLSMFQKIILRDRTVQDTLKTLMNAVSPLKSIVANSNKIYFSAIAKTQKIWTAYLEAIMKVGQMQILRQQIANELNYSCRFDSKHLAAALENLNKALLADIEAHYQDPSLPYPKEDNTLLYEITAYLEAAGIHNPLNKIYITTKRLPYFPIVNFLFLIAQLPKLQYNKNLGMVCRKPTDPVDWPPLVLGLLTLLKQFHSRYTEQFLALIGQFICSTVEQCTSQKIPEIPADVVGALLFLEDYVRYTKLPRRVAEAHVPNFIFDEFRTVL

Variants of: B1
Conditions: with pcna_human PCNA

Effect of a mutation on the interaction, with no effect:
N471D
L619F
V626F
